B1: ADI-41369 (antibody, V domains shown)
VH: EVQLVQSGGGVVQPGRSLRLSCAASGFTFSSYGMHWVRQAPGKGLEWVAVISHDGNNKYYGDSVKGRFTISRDNSKNTLHLQMNSLRGDDTAVYYCGKDPLKGDCSGGSCYQRIDYWGQGTLVTVSS
VL: NFMLTQPHSVSESPGKTVTISCTGSSGRIASNYVQWYQQRPGSAPATVIYDDNQRPSGVPDRFSGSIDSSSNSASLTISGLKTEDEADYYCQSYDRSNHVIFGGGTKLTVL
notes: IgG1; also called Ab 666
B2: ADI-41381 (antibody, V domains shown)
VH: QVQLQESGPGLVKPSQTLSLTCTVSGDSISGGEHYWSWIRQPPGKGLEWIGSIYYSGTTYYNPSLKSRLTVSVDTFKNQFSLMLSYVTAADTAVYYCARDASPAYHDYIWGSCRYFDKWGQGTLVTVSS
VL: EIVLTQSPGTLSLSPGERATLSCRASQSVSSNYLAWYQQKPGQAPRILIHGASSRATGIPDRFSGSGSGTDFTLTVSRLEPEDFAVYYCQQYGSTPYTFGQGTKVEIK
notes: IgG1; also called Ab 678
B3: ADI-41391 (antibody, V domains shown)
VH: EVQLLESGPGLVKPSETLSLTCTVSGGSISGYYWSWIRQPPGKGLEWIGYIYHSGGSTNYNPSLKSRVTISVDTSKNQFSLKVSSVTAADTAVYYCARLARVVTTFDFWGQGALVTVSS
VL: QPVLTQPASVSGSPGQSITISCTGTSSDVGGYNYVSWYQQKPGTAPKLMIFDVSNRPSGVSNRFSGSKSDNTASLTISGLQAEDEADYYCSSYTSSTNLVFGGGTKLTVL
notes: IgG1
B4: ADI-41372 (antibody, V domains shown)
VH: QVQLVQSGAEVKKPGSSVKVSCKASGGISSSYAISWVRQAPGQGLEWMGGIIPIFGTTNYAQKFQGRVTITADKSTSTVYMELSSLRSEDSAVYFCARAYCSGGTCYGGADYWGQGTLVTVSS
VL: SYELTQPPSVSVSPGQTARITCSGDVLPKQYAYWYQQKLGQAPLLVMYKDTERPSGIPERFSGSSSVTAVTLTISGVQAEDEADYYCQSADSTQELFGGGTKLTVL
notes: IgG1; also called Ab 669
B5: ADI-41384 (antibody, V domains shown)
VH: QVQLVQSGAEVKKPGSSVRVSCKASGGTFSRYAISWVRQAPGQGLEWMGGVIPRFDKTNYAQKFQGRVMITADKSTSTAYMELSSLRSDDTAVYYCAGDRLDTKITHTWYGFGDFWGQGTTVTVSS
VL: EIVLTQSPGTLSLSPGERATLSCRASQSVTSNFLAWYQQRPGQAPRLLIYGASVRAIDIPDRFSGSGSGTDFTLTISRLEPEDFAVYYCQQYGDPFRTFGQGTKVEIK
notes: IgG1; also called Ab 680
B6: ADI-41376 (antibody, V domains shown)
VH: QVQLQESGGGVVQPGRSLRLSCAASGFTFSSYAMHWVRQAPGKGLEWVAVISFDGTANKYYADSVKGRFAISRDNSKNTLYLQMNSLRAEDTAVYYCAKDDAIYSGGWVGDAFDLWGQGTMVTVSS
VL: EIVLTQSPATLSVSPGERATLSCRASQGVNSNLAWYQQKPGQAPRLLMYGASTRATGIPARFSGSGSETEFTLTISSLQSEDFAVYYCQQYNNWPRTFGQGTKVDIK
notes: IgG1; also called Ab 673
B7: ADI-41393 (antibody, V domains shown)
VH: QVQLVQSGAEVKKPGESLKISCKGSGYSFTSYWIGWVRQMPGKGLEWMGIIYPGDSDTRYSPSFQGQVTISADKSTSTAYLQWSSLKASDSAMYYCARSEFSSSFDFWGQGTLVTVSS
VL: NFMLTQPHSVSESPGKTVTISCTGSSGSIASYYVQWYQLRPGSAPTTVIYEDNQRLSGVPDRFSGSIDSSSNSASLTISGLKTEDEADYYCQSYRSGIPWVFGGGTKLTVL
notes: IgG1; also called Ab 687
B8: ADI-41375 (antibody, V domains shown)
VH: QVQLVQSGGGVVQPGRSLRLSCATSGFTFSDYAIHWVRQAPGKGLEWVAVISYDGSHKYYGDSVKGRFTISRDNSKNTLYLQMNSLRPEDTAVYYCARSRSGSYYSSAIDNWGQGTLVTVSS
VL: DIQMTQSPSSLSASVGDRVTIACRASQGISSALAWYRQRPGKAPELLIYDASTLESGVPSRFSGYGAGTDFTLTISSLQPEDFATYYCQQFNSYPSITFGQGTKVEIK
notes: IgG1
B9: ADI-41392 (antibody, V domains shown)
VH: EVQLVESGGGVVQPGGSLRLSCAASGFEFRDYAMHWVRQAPGKGLEWVALISYDGSKIHYADSVQGRFSISRDNSKNSLYLQMNSLRSEDSAKYYCVQDHWLVPAFWGQGAQVTVSS
VL: QPVLTQPASVSGSPGQWITISCTGTSSDIGYYDYVSWYQQYPGKAPKLIIYEVSHRPSGVSNRFSGSKSGNTASLSISGLQAEDEADYYCSSYTTSNAGVFGTGTKLTVL
notes: IgG1
B10: ADI-41385 (antibody, V domains shown)
VH: EVQLVESGGGVVQPGRSLRLSCAASGFTFSSYGMHWVRQAPGKGLEWVAVIWYDGNNEKYADSVKGRFTISRDNSKNTLYLQMNSLRAEDTAVYYCARPTQKYSSSWYWEDSIDYWGQGTLVTVSS
VL: QSVLTQPPSVFGAPGQRVTISCTGSSSNIGAGYPVHWYQQLPGTAPKLLIYGNSNRPSGVPDRFSGSKSGTSASLAITGLQAEDEADYYCQSYDSSLSGGVVFGGGTKLTVL
notes: IgG1; also called Ab 681
B11: ADI-41374 (antibody, V domains shown)
VH: QVQLVQSGAEVKKPGSSVKVSCKASGGTFSNHAIDWVRQAPGQGLEWMGRIIPMVGLATYTRKFQGRVTISVDKSTSTAYMELSSLISDDTAVYYCARRTPEMAWGYWGQGTTVTVSS
VL: DIVMTQTPSSLSASVGDRVTITCQASQDIRYYVNWYQQKPGKAPKLLIYDASTLETGVPSRFSGRGSGTDFTLIISSLQPEDIATYYCQQYGDLPTFGQGTRLEIK
notes: IgG1; also called Ab 671
B12: ADI-41366 (antibody, V domains shown)
VH: QVQLVQSGAEVKKPGESLKISCKASGYSSTTYWIGWVRQISGKGLEWMGIIYPGDSDTRYSPSFQGQVTISADRSTKTAYLQWSSLKASDTAMYYCGTSGFGVATPFDYWGQGTLVTVSS
VL: NFMLTQPHSVSESPGKTVTISCTRTSGSIAGNYVHWYQQRPGSAPTTVIYEDNQRPSGVPDRFSGSIDRSSNSASLTISGLKTEDEADYYCQSYASGIHGVFGGGTKVTVL
notes: IgG1
B13: ADI-41389 (antibody, V domains shown)
VH: EVQLVESGGGVVQPGRSLRLSCAASGFTFSNYAIHWVRQAPGKGLEWVAAISYDGGNKFYADSVKGRFTISRDNSRNTLYLQMNSLRPEDTAVYYCARDRWELNYGIDVWGQGTTVTVSS
VL: SYELMQPPSVSVSPGQTARITCSGDALPKQYAYWYQQKPGQAPVLVIYKDSERPSGIPERFSGSTSGTTVTLTISGVQAEDEADYYCQSADSSSTFFYVFGTGTKLTVL
notes: IgG1; also called Ab 683
B14: ADI-41373 (antibody, V domains shown)
VH: QVTLKESGGGLVKPGGSLRLSCAASGFTFSDYFMTWIRQAPGKGLEWVSYISSNSGYTKYAEDVKGRFSISRDNAKKTLFLQLNSLSAEDTAVYYCARVEFSSGDVPSLFDLWGQGTLVTVSS
VL: QSVLTQPPSVSGAPGQRVTISCTGSSSNIGAGYHVHWYQQLPGTAPKVLIHGNNNRPSGVPDRFSGSRSGTSASLAITGLQAEDEADYYCQSYDFSLSGWVFGGGTKLTVL
notes: IgG1; also called Ab 670
B15: ADI-41368 (antibody, V domains shown)
VH: EVQLVESGGGVVQPGRSLRLSCAASGFIFRNYGMHWVRQAPGKGLEWVAGTSFEGRNKDYGHSVKGRFTISRDNSKDTLYLQMNSLRPEDTAVYSCAKGSSLQWSHLDWYFDLWGRGTLVTVSS
VL: DIVMTQSPSTLSASVGDRVTITCRASQSFSSWLAWYQQKPGKAPNLLIYDASTLESGVPSRFSGSGSGTEFTLTISSLQPDDFATYYCQQERTFGQGTKVEIK
notes: IgG1; also called Ab 665
B16: ADI-41371 (antibody, V domains shown)
VH: QVQLQESGPRLVKPSQTLSLTCTVSGGSITTGEHYWSWIRQSPGRGLEWIGYISYSGSTYYNPSLKSRVTISVDTSKTRISLNLRSVTAADSAVYYCARDQEDSDYIWGSSRVFDIWGQGTMVTVSS
VL: ETTLTQSPGTLSLSPGERATLSCRASQNVGNNYLAWYQQKPGQAPRVLIQDASTRATGIPDRFSGSGSGTDFTLTISRLEPEDFAVYHCQQYGSAPWTFGQGTKVEIK
notes: IgG1; also called Ab 668
B17: ADI-41367 (antibody, V domains shown)
VH: QVQLVQSGAAVKRPGASVKVSCKASGYTFSTNALHWVRQAPGQSLEWMGWINTDNGIPKYSERFHGRVTFTRDTSASTVYMDLSGLRSGDTAVYYCARDGSSGHWLGLSVLDNWGQGTLVTVSS
VL: QSALIQPASVSGSPGQSITISCTGTSDDVGAYNYVSWYQQYPNKAPKLVIYEVSHRPSGVSNRFSGSKSGNTASLTISGLQAEDEADYYCSSYTRSATPYVFGTGTKLTVL
notes: IgG1
B18: ADI-41370 (antibody, V domains shown)
VH: EVQLVESGGGLVKPGGSLRLSCAASGFTFSGFSMNWVRQAPGKGLEWVSSISSTSRYIYYADSVQGRFTISRDNAKNSLYLQMNSLRAEDTAVYYCARDPGGSASFVPYYYGMDVWGQGATVTVSS
VL: SYELIQPPSVSVSPGQTARITCSGDALPNQYVYWYQKKPGQAPVLVIYKDTEGPLGIPERFSGSSSGTTVTLTISGVQAEDEADYYCQSADSSGTYPYVVFGGGTKLTVL
notes: IgG1; also called Ab 667
B19: ADI-41378 (antibody, V domains shown)
VH: EVQLVESGPGLVKPSGTLSLTCAVSGDSISSSNWWSWVRQPPGKGLEWIGEVSHSGNTDYNPSLKSRVTISVDKSKNQFSLKLSSVTAADTAVYYCARPSPCSGGSCYWFFDLWGRGTLVTVSS
VL: DIRLTQSPSSLSASVGDRVTITCRASQTINAYLNWYQQRPGKAPNLLIYAASSLQSGVPSRFSGSGSGTDFTLTISSLQPEDFATYYCQQSYKTAYTFGQGTKVEIK
notes: IgG1

molecular target: RSV fusion glycoprotein (RSV F) on RSV-A2 virus (respiratory syncytial virus, UniProt P03420 26-574); assay: cell-based or functional assay

Binder | Neutralization IC50 (RSV subtype A) [µg/mL]
B1 | > 25
B2 | > 25
B3 | > 25
B4 | > 25
B5 | > 25
B6 | > 25
B7 | > 25
B8 | > 25
B9 | 0.18
B10 | > 25
B11 | > 25
B12 | > 25
B13 | > 25
B14 | > 25
B15 | > 25
B16 | > 25
B17 | > 25
B18 | > 25
B19 | > 25

molecular target: RSV prefusion F (preF), DS-Cav1 (respiratory syncytial virus, UniProt P03420 26-513); assay: BLI, IgG on sensor, 100 nM antigen

Binder | Kd [nM]
B1 | 0.685
B2 | 2.6
B3 | 0.882
B4 | 2.48
B5 | 3.45
B6 | 4.15
B7 | 1.67
B8 | 2.96
B9 | 0.329
B10 | 4.52
B11 | 1.39
B12 | 1.79
B13 | 2.58
B14 | 3.71
B15 | 3.08
B16 | 2.96
B17 | 17.6
B18 | 5.59
B19 | 2.98

molecular target: RSV postfusion F (postF), F deltaFP (respiratory syncytial virus, UniProt P03420 26-513); assay: BLI, IgG on sensor, 100 nM antigen

Binder | Kd [nM]
B1 | 0.308
B2 | 1.34
B3 | 0.479
B4 | 0.425
B5 | 0.563
B6 | 0.705
B7 | 0.247
B8 | 1.02
B9 | 0.359
B10 | 0.601
B11 | 0.369
B12 | 0.278
B13 | 0.513
B14 | 1.18
B15 | 0.878
B16 | 0.543
B17 | 4.72
B18 | 1.64
B19 | 0.739
